From patent US6972319B1, “Pituitary adenylate cyclase activating peptide (PACAP)receptor 3 (R3) agonists and their pharmacological methods of use” (priority 1999, dated 2005)

T1: PACAP-R3 (human, UniProt P41587 24-438)
T1 sequence (looked up): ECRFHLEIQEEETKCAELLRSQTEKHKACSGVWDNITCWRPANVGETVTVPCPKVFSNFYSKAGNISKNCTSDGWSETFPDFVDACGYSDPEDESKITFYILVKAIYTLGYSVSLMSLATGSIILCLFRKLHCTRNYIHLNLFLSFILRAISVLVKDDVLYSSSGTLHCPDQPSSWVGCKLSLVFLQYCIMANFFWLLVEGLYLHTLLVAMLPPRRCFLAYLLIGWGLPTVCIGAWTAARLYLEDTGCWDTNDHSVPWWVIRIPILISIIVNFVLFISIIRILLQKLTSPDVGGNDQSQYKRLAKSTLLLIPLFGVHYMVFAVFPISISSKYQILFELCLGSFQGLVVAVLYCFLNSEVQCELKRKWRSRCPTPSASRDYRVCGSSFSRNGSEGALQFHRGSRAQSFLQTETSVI


Molecular target: T1, PACAP-R3
Experiment: cell-based or functional assay

Binder	R3 EC50, nM (cAMP SPA) [nM]	R3 Selectivity [ratio]
HSDAVFTDNYTRLRKQMASKKYLNSIRNRI [rR3P193]	1.9	110
HSDAVFTDNYTRLRKQMAGKKYLNSIQNRI [rR3P185]	4.5	40
HSDAVFTDNYTRLRKQMAGKKYLNSIPNRI [rR3P180]	6.7	> 20
HSDAVFTDNYTRLRKQMAAKKYLNSIRNRI [rR3P189]	0.04	30
HSDAVFTDNYTRLRKQMARKKYLNSIRNRI [rR3P192]	0.6	60
HSDAVFTDNYTRLRKQMAAKKYLNSIPNRI [rR3P179]	1.5	150
HSDAVFTDNYTRLRKQMASKKYLNSIKNRI [rR3P178]	0.75	110
HSDAVFTDNYTRLRKQMAKKKYLNSIPNRI [rR3P181]	5.1	50
HSDAVFTDNYTRLRKQMARKKYLNSIPNRI [rR3P182]	3.2	90
HSDAVFTDNYTRLRKQMAAKKYLNSIQNRI [rR3P184]	0.37	30
HSDAVFTDNYTRLRKQMASKKYLNSIQNRI [rR3P188]	2.2	70
HSDAVFTDNYTRLRKQMASKKYLNSIPNRI [rR3P183]	5.4	> 30
HSDAVFTDNYTRLRKQMAGKKYLNSIRNRI [rR3P190]	2.2	100
